Test results from PMC7591462, “The Diversity and Similarity of Transmembrane Trimerization of TNF Receptors” (Frontiers in Cell and Developmental Biology, 2020).

Target: the molecule itself
Assay: SDS-PAGE of bicelle-reconstituted protein; protein reconstituted in DMPC-DH6PC bicelles (q = 0.5; DMPC:DH6PC approximately 1:2), 20 mM sodium phosphate pH 6.8; mixed with LDS loading buffer without heating or reducing agents; NuPAGE 12% gel, 200 V on ice

B1: human TNFR1 TM fragment, residue 209-238 (TNFR1 TMH), C223A M233A (domain or fragment, UniProt P19438 209-238, looked up)
chain: GTTVLLPLVIFFGLALLSLLFIGLAYRYQR
notes: TNFR1 (tumor necrosis factor receptor 1), human, isoform 1, transmembrane fragment residues 209-238 with C223A and M233A; Released from His9-TrpLE by cyanogen bromide at a methionine added between TrpLE and the fragment; Isotope-labelled (15N, 13C, 2H) for NMR; also called TNFR TMH; TMH of TNFR1; source: reconstituted in DMPC-DH6PC bicelles; not shown: His9, N-terminal, cleaved; TrpLE, …
stoichiometry N: 3
